# Source: publication PMC9772378
# How the values were obtained:
# [1] = biological target: Singapore16 N2 NA (head domain, residues 82-469) with VASP tetramerization domain (influenza A virus A/Singapore/INFIMH-16-0019/2016 (H3N2)); assay: negative-stain electron microscopy
# [2] = biological target: Singapore16 N2 NA (head domain, residues 82-469) without VASP tetramerization domain (influenza A virus A/Singapore/INFIMH-16-0019/2016 (H3N2)); assay: negative-stain electron microscopy
Substance,stoichiometry N [1],stoichiometry N [2]
"Singapore16 N2 NA (head domain, residues 82-469) with VASP tetramerization domain (domain or fragment)",4,–
"Singapore16 N2 NA (head domain, residues 82-469) without VASP tetramerization domain (domain or fragment)",–,4
